Test results as given in the supplement of paper PMC10126150.
± gives the standard deviation of the averaged measurements.

system: ATP; test: switch fluorescence ratio, 500 uM ATP over buffer (Cy3 cluster intensity, sum of 5 cycles each) (fold (ratio)); higher = stronger signal-on switching upon ATP binding; sequences stand for … in TCGTCGGCAGCGTCAGATGTGTATAAGAGACAGTTTTTTTTTTTTTTTTTTTTTTTTT…TC; settings: aptamer strand: ATP DNA aptamer (quencher-CACCTGGGGGAGTATTGCGGAGGAAGG + anchor), 100 nM annealed; ATP concentration: 500 uM
Outline: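 Between each of five buffer/ATP cycles, the flow-cell was stripped with NaOH and re-annealed. Each cycle imaged Cy3-labelled switching-strand clusters, annealed to 100 nM quencher-labelled ATP aptamer on a modified Illumina MiSeq flow-cell, first in selection buffer and then after 15 min with 500 uM ATP at 22 °C. The fluorescence ratio is summed target-cycle over summed buffer-cycle Cy3 intensity per cluster, averaged per switch-domain sequence, with clusters outside 100-1000 RFU excluded.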
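Further: ATP exposure 15 min at 22 °C before imaging.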

Sequence	switch fluorescence ratio
TGCTGCAGTG	0.966 ± 0.024
TTAAAAAGAG	0.999 ± 0.042
AGGAATACTT	1.07 ± 0.043
TTGAAGAAAC	1.04 ± 0.018
TGTTATCGTT	0.989 ± 0.018
ATTTTGAGTT	0.982 ± 0.016
GGAGTCACTG	1.02 ± 0.017
ATATGTGTGA	0.968 ± 0.029
AGAGGGTTGC	0.978 ± 0.029
TGGCCCCTAT	0.962 ± 0.029
GGCTGCACGG	1.013 ± 0.01
CTTGGGGCGG	0.962 ± 0.017
GTTTCAGGGG	1.09 ± 0.015
AGGCTTTGGG	0.978 ± 0.0099
TTCGGTTGGA	0.984 ± 0.017
GGGGCCGGGT	0.998 ± 0.02
CGATCGGATG	1.03 ± 0.023
AAAGTGTAAA	1.08 ± 0.058
TAGGTGGAAA	0.992 ± 0.042
CATTGCTTTT	0.991 ± 0.024
AATTTTTCGG	0.994 ± 0.042
GCCAATTATT	0.991 ± 0.031
GAGTCTTTTG	1.013 ± 0.0096

Sequence	switch fluorescence ratio
TTTCGAGTTT	0.983 ± 0.012
AATATTTAGT	1 ± 0.024
TTTTACTAAA	1.06 ± 0.036
AGTTGTCCAT	0.9767 ± 0.0079
AGTTATTTGA	1 ± 0.031
TGGGAAATTT	1.1 ± 0.12
AAGATGTTTG	0.975 ± 0.021
ATTTGTGTAC	1.047 ± 0.0071
GCCGAATATG	1.01 ± 0.015
GAACAAAGGG	0.988 ± 0.017
ATTAGGTATG	0.969 ± 0.016
ATTTCATGTG	0.9853 ± 0.0035
TTGTTTGGCA	0.991 ± 0.025
TGCCGACGGG	1.01 ± 0.019
AAAGGAGGAA	0.989 ± 0.019
TAGACACAGC	1.02 ± 0.12
TATAAGATGT	0.983 ± 0.025
CTGTTAAAGG	0.999 ± 0.013
TCAGGGCAGC	1.01 ± 0.019
TTTTTTT	0.9671 ± 0.0074
GGGCATTGGT	0.991 ± 0.049
TCGATAGCGA	1.19 ± 0.028
GATTGCGAGA	1.01 ± 0.036

Sequence	switch fluorescence ratio
TATGTAGGGG	1.09 ± 0.14
AGGTTAGGGC	0.984 ± 0.018
GTGTATCCGT	0.994 ± 0.018
CAGCAATTAT	2.95 ± 0.28
CGGGGATCGT	1 ± 0.032
AAGTTTTGGT	0.964 ± 0.019
CTATGGAAGG	0.98 ± 0.013
TTTAGGTTGA	0.9957 ± 0.0012
TTAAATATTT	0.992 ± 0.022
AAAATTGAAA	0.988 ± 0.073
ATTCTAGTAT	0.962 ± 0.026
AGTATGTGGA	0.9729 ± 0.0071
GGAATCAGGG	0.99 ± 0.07
AGGAGTTTGG	0.981 ± 0.015
CGTAAATTTA	0.975 ± 0.018
TTTATGGTAT	0.982 ± 0.028
ACGTTGCACA	1.18 ± 0.016
TAAGATTACA	1.017 ± 0.006
AGGTGGAAGG	0.984 ± 0.021
TACAGGGGGG	1 ± 0.027
TGATGAGATC	0.9734 ± 0.0082
ATTAAGGCGC	0.998 ± 0.029
ACCGGTTACG	1.027 ± 0.0055

Sequence	switch fluorescence ratio
CGGGCGGGTG	1.03 ± 0.017
AATGGGATAC	1.16 ± 0.027
ATTGGGGAGA	1.04 ± 0.052
TTCGGGCGGA	0.98 ± 0.011
GGGGGCGTTC	1.015 ± 0.005
ATGTAATATA	1.02 ± 0.06
ACGGACGCCA	1.21 ± 0.019
TTATAAAAAC	0.982 ± 0.076
TGGAGGGGTT	1.02 ± 0.037
TATAGAAGGG	1 ± 0.053
GCTAGGCCTC	1.01 ± 0.038
TGATGGGTC	0.9961 ± 0.0054
TTGATGCGGT	1.04 ± 0.042
AGCCCGGGCA	0.956 ± 0.015
TTCTGTACGG	1.02 ± 0.014
TTGCGTTTTG	0.991 ± 0.057
GAGTCAGC	1.08 ± 0.14
GGTTCAGGGA	0.977 ± 0.0099
GGAGAAGGGA	0.973 ± 0.062
TTGCCGTGTA	1.02 ± 0.031
CTTAGAGCGG	1.01 ± 0.022
TCTGGGAGGT	0.975 ± 0.02
TTACTCGGTC	0.99 ± 0.052

Sequence	switch fluorescence ratio
GACTTCCAGG	1.05 ± 0.026
AGGGCGTCTG	1.01 ± 0.058
TTTAATGGGG	1.02 ± 0.035
ACGACCTTGT	1.03 ± 0.018
TATGAAGGGA	0.99 ± 0.021
ATTGGTGTAG	0.972 ± 0.023
TTCAGTTCGA	0.9971 ± 0.0057
GCTATTAGGA	0.984 ± 0.033
CCACGAATT	1.012 ± 0.0096
GATGGTATGG	1.007 ± 0.0052
GGCAGCTGGG	0.946 ± 0.023
ATCGGGGCGG	0.993 ± 0.031
AAAGTTATAT	1.022 ± 0.0028
ACAGAATCGA	1.02 ± 0.032
GATCGTTGTC	0.988 ± 0.027
ATAGATGTCT	0.992 ± 0.019
CAGGTTTGTT	1.12 ± 0.17
AATGAAGGCA	1.005 ± 0.0049
ACATTGTACG	1.09 ± 0.019
GGGAAGGAAG	1.04 ± 0.04
ACGAAGATTA	1.03 ± 0.014
TTTAGCAGAG	1.16 ± 0.28
TGATGATATA	1.02 ± 0.013

Sequence	switch fluorescence ratio
ACGACTGTAG	1.02 ± 0.029
TTTCTGGGTG	1.13 ± 0.038
AAAGGCGTTA	0.9971 ± 0.0062
CCGGCGGAAG	1.003 ± 0.0011
GTGAAAGGAG	0.997 ± 0.039
ACCATAGAAT	1.009 ± 0.0094
TTTGGGGCT	0.957 ± 0.039
GAATGCCGGG	1.03 ± 0.054
TTGACAGGCA	0.968 ± 0.012
CCAAAGATAT	1.09 ± 0.03
TGAGTATTAG	0.999 ± 0.033
CGCCGGTTGG	0.997 ± 0.014
TTTTCCATTG	1.01 ± 0.021
GCTTTGGGGA	1 ± 0.025
TAATGACGCT	0.997 ± 0.027
TAAGGGGGCC	1.08 ± 0.16
TGGTACGTGG	0.974 ± 0.032
CGGATGCGGT	1.013 ± 0.0075
ACTAGGGATG	0.987 ± 0.014
TTTTGAGTCG	1.01 ± 0.033
GGGTGGAGGG	0.973 ± 0.012
ATAATATAGG	0.99 ± 0.041
GGGTGAGCGA	1.05 ± 0.064

Sequence	switch fluorescence ratio
ATAGGGGGCT	0.9892 ± 0.0096
TTTTCTTTGG	1.03 ± 0.077
AAGGCTGTAA	0.97831 ± 0.0009
TTATGTCCGG	1.02 ± 0.025
TATGTCAGCT	1.01 ± 0.032
CCAAGTAATT	1.2 ± 0.019
TACGTCCCGA	1.01 ± 0.045
TCGTTCGGCA	1.06 ± 0.032
GCTAACGGAG	1.0112 ± 0.00048
ACTAAAGTGC	1.01 ± 0.03
GGGTGGGGAT	1 ± 0.02
TTTATGGTAA	0.9888 ± 0.0024
GAAGCGGTGG	0.954 ± 0.09
AGGTAGCATG	1.01 ± 0.066
TAAATGACTA	0.987 ± 0.018
TTTGAAAATA	0.962 ± 0.018
TTCATTCATG	0.97 ± 0.0033
CATCATTATA	0.9866 ± 0.0079
TTGATTAGTA	0.97 ± 0.028
